# Source: the nanobody polyreactivity screen of Harvey et al. (2022)
# Assay: yeast display, Sf9 membrane polyspecificity reagent, FACS + sequencing; frameworks hold sequencing errors
# Outline: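 Polyreactivity labels are assigned by the sorting gate from which each nanobody was recovered. The gates were low and high (top ~1%), set on anti-HA fluorescence for expression and streptavidin fluorescence for reagent binding. Before sorting, galactose-induced (36–48 hours) yeast display cells were stained for 1 hour at 4 °C with 10% biotinylated, detergent-solubilized Sf9 membrane reagent.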
row,Sequence,polyreactivity (PSR sort gate)
1,QVQLVESGGGLVQAGGSLRLSCAASGRTFRYYAMGWYRQAPGKERELVAAISWSGVRTYYADSVKGRFTISRDNSKNTVYLQMNSLKPEDTAVYYCAKGGYWGQGTQVTVSS,high polyreactivity
2,QVQLVDSGGGLVQAGGSLRLSCADSGRIFVGYAMGWYTQAPGKDRELVAAINRTGSSTYYADSVKGRFTISRDNAKTTVYLQMNSLKPEDTAVYYCNARSGNRYGPRYDYWGQGTQVTVSS,high polyreactivity
3,QVQLVESGGGLVQAGGSLRLSCAASGRIFSFYAMGWYRQAPGKERELVATISKRAGSTYYADSVKGRFTISRDNAKNTVYLQMNSLKPEDTAVYYCAARKWYYASSRWRDYWGQGTQVTVSS,high polyreactivity
4,QVQLVESGGGLVQAGGSLRLSCAASGNMFYRNGMGWYRQAPGKERQFVAAISRRGGSTYYADSVKGRFTISRDNAKNTVYLQMNSLKPEDTAVYYCATRYWPTNKGEYWGQGTQVTVSS,high polyreactivity
5,QVQLVESGGGLVQAGGSLRLSCAASGITFYRYTMGWYRQAPGKERELVAAITWSGGSTYYADSVKGRFTISRDNAKNTVYLQMNSLKPEDTAVYYCAVYLPYSQRYVHYYYWGQGTQVTVSS,high polyreactivity
6,QVQLVESGGGLVQAGGSLRLSCAASGRIFAFYAMGWYRQAPGKVREFVAAITKSGGSTYYADSVKGRFTISRDNAKNTVYLQMNSLKPEDTAVYYCAADYWYPTTYYLYDYWGQGTQVTVSS,low polyreactivity
7,QVQLVESGGGLVQAGGSLRLSCAASGNTFATYAMGWYRQAPGKERELVAGITVDGASTNYADSVKGRFTISRDNAKNTVYLQMNSLKPEDTAVYYCNADYTTQVYDSTWPGDFGYWGQGTQVTVSS,high polyreactivity
8,QVQLVESGGGLVQAGGSLRLSCAASGSTFWLYAMGWYRQAPGKERELVAAIRSGDRTNYADSVKGRFTISRDNAKHTVYLQMNSLKPEDTAVYYCAVRRWGTSFVEDDYWGQGTQVTVSS,low polyreactivity
9,QVQLVDSGGGLVQAGVSLRLSCPASGSIFRPNAMGWYRQAPGKERELVAAINTSDDSTYYADSVKGRFTISRDNAKNTVYLQMNSLIREDTAVYYCAAEYYAYAYGDDYDYWGQGTQVTVSS,low polyreactivity
10,QVQLVESGGGLVQAGGSLRLSCAASGSTFAANAMGWYRQAPGKERELVAVIRRGGSTTYADSVKGRFTISRDNAKNTVYLQMNSLKPEDTAVYYCHARVTLGRPLFTYLVRYEYWGQGTQVTVSS,high polyreactivity
11,QVQLQESGGGLVQAGGSLRLSCAASGSIFADVQMGWYRQAPGKERELVASINFRGTTTYNADSVKGRITISRDNSKNTVYLQMSSLKPEDTAVYYCSVGRSEGGDYAYWGQGTHVTVSS,low polyreactivity
12,QVQLVESGGGLVQAGCSLRLRCAASGFTFYSYAMGWYRQAPGKERELVANITIGGSTYADSVKGRFTISRDNAKNNVYLQMNSLNPEDTAVYYCARGYRVVGDPLYGEYDYWGQGSQVTVSS,low polyreactivity
13,HLQLEESGVGLVQAGGSLRLSCAASGSTFTFNAMGWYRQAPAKSRELVAAIRWNGESTYYADSVKGRFSISRDNAKNTVYIQMNSLNPEDTAVYYCAATRLLSKSGDRYYYWGQGTQVTVSS,low polyreactivity
14,QVHLVESGGGLVQAGGSRRLSCAASGSIFRWYAMGWSRQAPGKERELVAAITRSGGRTYYADSVKGRFTISRDNAKNTVYLQMNSLKPEDTAVYYCAAVARTVPSYSYNYWGQGTQVTVSS,high polyreactivity
15,QVQLVESGGGLVQAGGSLRLSCAASGRIFAVYAMGWYRQAPGKEREFVAAISYSGGITYYADSVKGRFTISRDNAKNTVYLQMNSLIPEDTAVYYCNAYYYFWGQGTQVTVSS,low polyreactivity
16,QVQLVESGGGLVQAGGSLRLSCAASGITFRTYAMGWYRQALGKERELVAVITWSGGRTYYADSVKGRFTISRDNANNTVYLQMHSLKPEDTAVYYCNALAYYIRYYYWGQGTQVTVSS,high polyreactivity
17,QVQLVESGGGLVQAGGSLRLSCAASGFIFRGKAMGWYRQAPGKERELVAAISSRGGSTYYADSVKGRFTISRDNAKNSVYLQMNSLKPEDTAVYYCAAGSTSGYFRYYYWGQGTQVTVSS,high polyreactivity
18,QVQLVESGGGLVQAGGSLRLSCSASGLTLAPNAMGWYRQAPGKERELVAAITRSGGDTYYADSVKGRFTISRDNAKNTVYLQMNSLKPEDTAVYYCAADYWFRYGTYEYWGQGTQVTVSS,high polyreactivity
19,QVQLVESGGGLVQAGGSLRLSCAASGNILEGYTMGWYRQAPGKERELVATISGRGGSTYYADSVKGRFTISRDYAKNTVYLQMHSLKPEDTAVYYCNALPWALYDSTSIYYYWGQGTQVTVSS,low polyreactivity
20,QVQLVESGGGLVQAGGILRFSCAASGRISVVNAMAWFRQAPGKARELVAAIRRASTNYADSVKGRFTISRDNAKNTVYLQMNSLKPEDTAVYYCAARVYGINIFEYWGQGTQVTLSS,high polyreactivity
21,QVQLVESGGGLVQAGGSLRLSCAASGSTFSYYGMGWYRQAPGKERELVAAIDYSGDSTYYADSVKGRFTISRDNAKNTVYLQMNSMKPEDTALYYCNAAHSVRHYAIHLGYWGQGTQVTVSS,low polyreactivity
22,QVQLVESGGGLVQAGGSLRLSCADSGNTFYGYAMGWSRQSPGTERELVASITLSGDSTYYADSVKGRFTISRDNAKNTVYLQMNSLKPEDTAVYYCAGVYTYPLGYYHYTYDYWGQGTQVTVSS,low polyreactivity

row,Sequence,polyreactivity (PSR sort gate)
1,QDQLVETGGGLVQAGGSLRLSCAAYGSIFDLNAMGWYRQAPGKESELVAAITYSSGRTYYADSVKGRFTISRDNAKNTVYLQMNSLKPEDTAVYYCNADLWFHYYRYNYWGQGTQVTVSS,high polyreactivity
2,QGQLVESGGGLVQAGGSLRLSCAASGRTFVDYDMGWYRQAAGKERELVADINSGGSTYYADSVKGRFTISRDNAKNTVYLQMNSLKREDSAVYYCAADDGWGYISSYDYEYWGQGTQVTVSS,high polyreactivity
3,QVQLVESGGGLVQAGGSLRISCAASGSTFDPNAMGWYRQAPGKERELVAVIDSGDGTTYYADSVKGRFTISRDIAKNTVSFQMISQKREDTAVYYCAVDESTSYYDDHEDYWGQRTQVTVSS,low polyreactivity
4,QVQLVESGGGLVQAGGSLRLSCAASGRIFARYAMGWYRQAPGKERELVAAISFRGGSTYYADSVKGRFTISRDNAQNTVYLPMNSLKPEDTAVYYCNARYGRGGYDYWGQGTQVSVSS,high polyreactivity
5,QVQLVESGGGIVQAGGSLRLSSAASGGIFPYYVMGRYRQAPGKERELVAAINSGGTTYYADSVKGRFTISRDNAKNTVYLQMNSLKPEDTAVYYCAAEAYKHGVWDYDYWGQGTQVTVSS,low polyreactivity
6,QVQLEESGGSLVQAGGSLRLSCAASGRTFYHYAMGWYRPAPGKERQLVAAISSGGSTKYADSVKGRFTISRDNAKNTVYLQMNSLKPEDTAVYYCAARTYQKGGRYYYWGQGTHVTVSS,high polyreactivity
7,QVQLVESGGGLVQAGGSLRLSCAASGGIFGRNAMGWYRQAPGKEMELVAAISSSGGTTYYADSVKGRFTISRDYAKNTVYLQMNSMKPEDTAVYYCNAAYYWRSFHDDYFGQGTQVTVSS,high polyreactivity
8,QVHIEDSGGGLLQAGGSLRLSCAATGRTFFYYAMGWYRQAPGKERELVAAISGRGGRTYYADSVKGRFTISRDNAINTVYLQMNSLKPEDTAVYFCGGDAGPLRYDYWGQGTQVTVSS,high polyreactivity
9,QVQLVESGGGLVQAGGSLRLSCAASGRTSAKYAMGWYRQAPGKERELVAVITKNSGSTYYADSVKGRFTISRDNAKNTVYLQMNSLKPEDTAVYYCNRVPRGINRQSRPEDYWGQGTQVTVSS,high polyreactivity
10,QVQLVESGGGLVQAGGSLRLSCAASGRTFWTYTMGWYRQAPGKERELVAAISYSGSRTYYADSVKGRFTISRDNAKNTVYLQMNSQKPEETAVYYWATDDSDYLYRTVSAWEYDYWGQGTQVTVSS,low polyreactivity
11,QVQLVESGGGLVQAGGSLRLSCAASGSIFGGYAMGWYRQAPGKERELVAAISKTGGTTYYADSVKGRFTISRDNAKNTVYLQMNSLKPEDTAVYYCNAPKRYSGSAYGYGYWGQGTQVTVSS,high polyreactivity
12,QVQLVDSGGGLVQAGGSLRLSCAAYGLTFTYYDMGWYRQAPGNERELVATFSWSDSSTYADSVKGRFTISRDNAKNTVYLQMNSLKPEDTAVYYCNKVSYYTYDVDYWGQRTQVTVSS,low polyreactivity
13,QVQHVESGGGLVQAGGSLRLSCAASGLIFSKNVMGWYRQARGKEREFVAAISQRGGSTYYADSVKGRFTISRDNAKNTVYVQMNSLKPEDTAVYYCAADNTVSHEDFWGQGTQVTVSS,high polyreactivity
14,QDQLVESGGGLVQAGGSLRLSCAASGLTFLWYNMGWYRPAPGKERELVAGITWSGGSTYYADSVKGRFTISRDNAKNTVYLQMNSLKPEDTAVYYCAASFLWKVTGEYYYWGQGTQVTVSS,high polyreactivity
15,QVQLVESGGGLVQAGGSLRLSCAASGSTHNQNAMGWSRQAPGKETELVAAISSNGGTTYYADSVKWRFTISRDNAKNTVYLQMNSLKQEDTAVYYCAADWDRYVPRSYYRVSWYDYWGQGTQVTVSS,low polyreactivity
16,QVQHVESGGGLVQAGGSLRLSCAASGIIFGSNVMGWYRQAPGKERELVAAISYSGASTYYADSVKGRFTISRDNAKNTVYLQMNSLKPEDTAVYYCAADGHRNGYYYHEYDSWGQGTQVTVSS,low polyreactivity
17,QVQLVESGGGLVQAGGSLRISCAASGSIFGYAMACYRQGPGKERELVAAITSSGGSTYYADSVKGRFTISRDNAKNTVYLHKNSLKPEDTAGYYCNAYLRWYITLLRFLAGGDYWGQGYQVTVSS,high polyreactivity
18,QVQLVESGGGLVQAGGSLRLSCAASGITFYPYAMGWYRQAPGKERELVAAITGSGGRTYYADSVKGRFTISRDNAKNTVYLQMNSLKPEDTAVYYCAKVARYPDMGYWGQGTQVTVSS,high polyreactivity
19,QVQLVESGGCIVQAGGSLRLSCAASGRICYTNAMVWYRQAPGKERELVAVISWGGDTTYYADSVKGRFTISRDNANNTVYLQMNSLKPEDTAGYYCNADWGPPYEIYDSWGQGTQVTVSS,low polyreactivity
20,QVQLVQSGGGLVQAGGSLRLSCAASGYIFNFNPMGWNRQAPGKERELVAVISDRDDTTYYADSVKGRFTISRDNAKNTVYLQMNSMKPEDTAVYYCAAVGDTYVDDQYDYWGQGTQVTVSS,low polyreactivity
21,QVQLVESGGGLVQAGGSLRLSCAASGSIFDPYAMGWYRQAPGKERELVAAITYSVGGTTYYADSVKGRFTISRDNAKNTVYLQMNSLKPEDTAVYYCAAEWWGNPFDYWGQGTQVTVSS,high polyreactivity
